Tests used:
[1] = target: His-tagged OsTFIIAγ1, labelled with NT-647 (rice (Oryza sativa)); assay: MST; […]; 50 mM Tris-HCl pH 7.8, 150 mM NaCl, 10 mM MgCl2, 0.05% Tween-20; 25°C; […]
[2] = target: His-tagged Xa5 (OsTFIIAγ5), labelled with NT-647 (rice (Oryza sativa)) (UniProt A2XZI2); assay: as above

His-tagged AvrXa27 (from UniProt A0A0K0GNW2 1-1136) (natural protein)
Kd [1]: < 1000 nM

His-tagged PthXo1 (from UniProt B2SU53 1-1373) (natural protein)
Kd [1]: < 1000 nM

His-tagged AvrXa7 (natural protein)
Kd [2]: < 1000 nM
Kd [1]: < 1000 nM

— publication PMC6638009
